According to a protein production outcome set (Wang et al. 2014):

Experiment: label from the status in PepcDB records

Sequence: MDKKVEKIQEKVRLFYKKHQRNTTIVVVISLSMILILGMAAWYEGKGISYEAKQTALREKQHALQKKRDDILAGKMTEASTQTTINNFSKQEITGENELVTITGTNGQLNINDANIYVSDNAGIVSNQLKQKMFQLNQQLLENANGAQFMLITVPALPSGESVESYSNKIANQLGVGDREKNNGVVFLMAIEDRESRLEVGYGLESILTDSYADDIINNEEVKEAFRDEDYNTGLNKIIDQVSAAINSKTAQVDNELTNIQTELNTNTTKRNVLLMASIAGMLICAVYILQILRTRKLVKKMYQDYLNCLPTKAVLNNSEQTKKVLNKMKKTSFYCLYLNGATLFATKGKIRRATKRGSLLSIYPNAKKQSFGRLLVGDTLYSYDGSVLTYAYLNSQYNPSNHSSSGSGSGGSFGGGSFGGGGASGSWLEHHHHHH
- protein production: not failed

Sequence: MKHFKLPDLGEGLQEAEIVEWHVKAGDSVRADQRLVSVETAKALVDIPAPYDGVVGKLFGAEGDILHVGEPLVGFEGEEADAGTVVGRLEGGGSALEDRFFIGAAPSTREHLAPRATPAVRQFARQQGVELAGLSGSGPDGLITRADVEAAAQGTRERFGGERLRGVRRSMALNMARSHAEVVPVTIYGDADLHRWKTARDPLIRLAQALAEACRAEPTLNAWFDGASLSLKLHERLDLGIAVDTPDGLFVPVLRDVGARSAEDLRAGMRRLREDVQARSIPPAEMLGATLTLSNFGTLFGRYANPVVVPPQVAILGAGGIRDEVVAWRGEMAIHPILPLSLSFDHRAATGGEAARFLKVLVNALEQPD
- protein production: failed

Sequence: MSLKKTILCFGEALIDMLAQPLVKKGMPRAFLQCAGGAPANVAVAVARLGGAVQFVGMLGSDMFGDFLFDSFAEAGVVTDGIVRTSTAKTALAFVALDAHGERSFSFYRPPAADLLFRVEHFQDASFSDALIFHACSNSMTDADIAEVTFEGMRRAQAAGAIVSFDLNFRPMLWPNGENPASRLWKGLSLADVVKLSSEELDYLANTLAADANAVIQQLWQGRAQLLLVTDAAGPVHWYTRTAGGEVPTFRVQVQDSNAAGDAFVGGMLYTFAQQFDDAAALIDFCHDPESIVSTLRFAAAVGALAVTRQGAFTAMPMLSEVLSLIQEQSEGHHHHHH
- protein production: not failed

Sequence: MLNMSFAPTSLTVSQMSGTRTIRPLTAATLCGIAFIQDRLIAIDSIKGHLLEIDPKTDNSKILNPHQAKEFTDVTGLAVWEDNLWVTRGNSVYVSKLSSLGLEHFVTLPYSADGVAVWESTVYVSCHRLGYILIFDRDTRKEITRFYAPGVGVENLVVNGNTLWVCDRTEQTVYSMDRATGEVIFSVLTPFESPTGIAVHLDAETGKENLYVAYASEEPYIRDNPNADPNHELTYRDRTFIHPLYYHHQPDKHYALSNGYLIEMSYAEEISPLEEVYIPEVEWRIALPSETERQKIRHIEPIGIPFTEEVIDGQRVALFKFDALVPGERHIFGWKALLEVRGIKYRITPKEVENIPELSPEFQERYLVDDDDLAMDTSIVRRAAEEAVGSETNLLRKMYSIRNYVYDELSYGIKPYIDTPDIVLERGIGSCGEYVGVLLALCRLNGIPCRTVGRYKCPPQAEQQGVPLQPDFNHVWLEFYIPGFGWLPMESNPDDLGRGSQYPTRFFMGLCWYHIEIGKGVSFETISSQGKRLTKDDIPIGDLAINHIRFTIVKELPDF
- protein production: failed

Sequence: MNQHSFSLDDYYKSLINLDGMNDYYRYFIGLNGIIFPLLLIMSYPSVINLATKASFLIMLVGACCVLIDNWNRKSIAYRLYVELYENEYLANSDYKAGKVFVNLIFYVVSIYLISGVFGVL
- protein production: failed

Sequence: MHPFRWQRSRQRSSALSFLKKAFYQIPVIGWLVKDAAHGSPEAPYFFLFNAVVVGAALIYTFGYPLVITVAVAGAFAGIAGLVVLTAGDAFDKRAKQPATDVRRAKTATVRPLKKAA
- protein production: failed

Sequence: MRVVIVGAGKVGYSLAQYLTQEDHEVIVIEENEERRAIVQNTLDVMTISGNGASPRVLLDPEVRKAELMIAVTDMDEVNMIACMAAKQVGIKRTIARVRNQEYAEKDKIKFNEALGIDLTINPEMVTALEIKRILLTPSALDVEDFAGDRVRMIEVKMPSDSKLINTSLTQLTLPSHTLVAGILRNGRMLIPHGSDMLLPNDCVFFVGEVSAIKKIEDHFTVRKSKVERVLIIGAGRIGRHLAMILEKSDIAVKIIDKDMERCQELAESLDEGLVLCGEGTDIELLTEEGVGEADAVLCLTDDDKLNLLIALLAKHLGAPRTFVRVGRPDYISLMEKVGVDVVLSPRILTAGVILRYVRRSDVVSVSLLEGAKAEAMEIIIPPLSQVTHKKLKDAKLPKNSLIGSIVRDEEIIIPNGETVLKPGDRAIIFALPDTVPTVVRLFENKLESK
- protein production: failed

Sequence: MKVKKYDQFNESCYQAQLDNGLTVTLLPKAGYHKTYATFTTNYGSIDNTFVPAGSTEMQRFPDGIAHFLEHKMFEKADHDAFQIFGQYGASANAFTSFTKTSYLFSATRHLQDNLMTLLDFVQDPYFTPATVDKEKGIIGQEIEMYDDDPSWRLYFGMIGNLYPNHPLQYDIAGTTESIAKITADDLYAAYRTFYHPENMTLFVVGNFDPDEVLGWITTNQATKKFAAFQPIERKIPETATDGHDIIPYRTIDMPVNRAKSIVGVKGLLPIEAGAAALKYRAAVNVLLELLFGDTSADYLRLYDQGIIDDTFGYDFELQSGFNFVTFSGETDDPAQFDAAIIDVLENWRTAVVGQEAALALVKKEMIGRVVFMANSLEAIANRYDQRLFGTATIFDEPGIIDQLTLADLQTVAEQLLTSQAISEYQIRPQAKS
- protein production: failed

Sequence: MVSLVMSGLTFWAVNTIQQDAQVNDTRFGRDLGLLLAANVAPLVADHNLTEVAQFSQRFYSSTSSVRYMLYADETGKIFFGIPFWEPEVENSLSIERRIQLPEEYPGDGEKPMVRQHMSPDGIVTDVFIPLIVDKKYLGVLAIGINPNQTAVISTNFTRDVTIAVFITIWVMVILAGVVNALTITKPIKELLVGVKQIAAGNFKQRIDLPLGGELGELILNFNEMAERLERYEEQNIEELTAEKAKLETLVSTIADGAVLIDNNMQVILVNPTARHIFGWEGADDVVGSNVLHHLPPAVQMEITRPLYEMAAGECDSAEFRLTLNQPSNRTIRILLTTVLNLQRESIKGIAITVQDITREVELNEAKSQFISNVSHELRTPLFNIKSFIETLHDYGEDLSLEERQEFLQTVNHETDRLTRLVNDVLDLSKLESGRSYSFDGVDLAQAIEQTLRTYQLNARDKGIELIQDVAPGLPLVLGNYDLLLQVLANLVGNALKFTSSGGKIAIRTYVLNTKSNSPNQPAQVRIEVSDTGIGIAQEDQQAIFDRFFRVENRVHTLEGTGLGLSIVRNIVERHRSRVNLVSEVGVGTTFWFDLILFEDEAPKKMVESGEEKAAMPTS
- protein production: failed

Sequence: MSLEGLSINFATVRQGGNFGAIVDACLAHGITAISPWREQVHGVGLAEAARIVEQNGLRLSGHCRGGFFPAIDADGRRRAIEDNKRAVDEAAAMKADCLVLVVGGLPAGSRDLKGARQMVEDGMAKLLPYARAAGVPLAIEPLHPFYAAERACFNTLKQSLDLCDRLGAGTGVAIDVYHVWWDPELEEQVARAGRNGQILAHHICDWLVPTTDPLNDRGMMGDGVIDLKAFRAMIEAAGFHGPQEVEIFSHRWQARPMDEVLATVVERFKTVC
- protein production: failed

Sequence: MLIGIDLGTTNSAVALWHEGEARLVPNSLGALLTPSAVSVLQDGTTLVGAAAFERMAAKDGAAATSFKRLLGTDRKVRLGRKEFSAEDLSALVLQSLCADVEAHTGERPTEAVITVPAYFNDRQRKATRRAGELAGLSVRRLINEPTAAALAFGLKDKAEREPFLVFDLGGGTFDVSIVEMFEGIVEVRASAGDNRLGGDDFNGALAMAVKGRLDPDERLATLGEARAQALLLQAAERTRRALTDAPEAEFAVTAGDERLSTTVTASEFEAQAEGLLRRLRDPVVRALRDSQIDAASLSEIVLVGGATRMPLVRKAITRLFGRFPNASVHPDHAVALGAAIQGGLIARDGGLEEIRITDVCPFTLGIETAEHSVRGTIQQGLFSPIIERNTPVPVSRSGVYSTMGDGQKQIAVHIYQGEAREVSGNVKLGTLSVPVPSRPAGEVSIDVRFSYDSSGLLEVDVEVPLTGTRHNLVIIDEEDRKAAKDLDARRKALAALKHHPREEAANQLLLARAERCYEEFLGDVRAVIGGRTLSFTTALDSQDPRRIADAAAELAELLDMLEANPVL
- protein production: failed

Sequence: MSVFTKTSVASAATTCLFVLLWSSGAIVSKLGLAHASPFAFLLLRSALALAGLLLIGPLLGLRWPRTRGSILRALGTGCVLLGAYQIFYLLALDTHVTPGVMATVMGVQPILTVVLMERQRSWSRLFGLGLGLGGLIMVVYQGINLGGVSLAGMLFALLALVSMTFGSILQKRITDNPMGTLPLQYLAGFAMCALFAPLQPLHVEWTGSFVGALLWMGLVVSLLATLLLYRLIAKGNLVNVTSLFYLVPAVTAVMDLLIFGNRLAPLSLLGMGLIVVGLLFVFRKPAARLAEA
- protein production: failed

Sequence: MERLSPVFATSKSSNMEVEHWMTSLKEVEKVLDSVEPKLTSSGTKWRVVAQHIKDICSDLNQIFNKEDPRYEVVQAGASAAHDFDVRYLDIHKVRTPHEPLEMRHSKGRKHGREIARLLEKIQKYRQEIEEIKKEYKETDKYRERYDHYKVKLDNLEKKNKDQERIERNQQKFKDAEAAYSSVCADLIQKMETVWKKHVSIFAEAASAVWSTQLQYAKALEAAANPIVPYLQQEEQEEEEEEEAASGTQGRVAEKAYHTNEEKVENSFQKNSAIPPSFRTASEQLTEQSKNINNAKNTSETSPAEDIEA
- protein production: not failed

Sequence: MKYSWNKTVFPIAAIFSFRLLGLFLLIPVFTLYATNLKGATPTLIGLALGSYGLAQGLLQIPFGMLSDKLGRKPMIAIGLLLFAGGSLLGAVTHSIAGMITARILQGAGAIGSVLIALLADLTLDEQRTKAMAIVGITIGTSFSLAMIISPALTHYYGLSGVFYLTAALAVLGIMILYLIIPNPSKEQFHADSEPSLSLIKPVVTDQHLQRLNFGIFCQHFILTATFFAIPMLLKYQIENGHLHQQWHFYLPLMLFSFILMVPFIIISERKKRLKTVFVISVLLTTFTQGLLVLASQNWYWFCILMFVYFVSFNVLEATLPSLVSKLASPGSKGTAMGIYSTSQFLGIFFGGSLAGILYQWYDNQAIFLINMILSCLWFIISLSMKSNVYFSTLILPFTANNEESKLVVNQLLKVAGIKEVILSKDENTLYVRVDNEEYSTGSAEKILHQSTIYQ
- protein production: failed

Sequence: MKKATMLTYLEEQLEKHLGDYEVGLDWDRKNHTIEVIVRLYAENNEQVAIDDVDGTLSEEEFIEFEDGLLFYNPQKSVVDDEEYLVTIPYEGKKGLRKAVLDGFIHYLKVVLDEGQSDLLDFLSDETAEVFELHWEPADFEAMIKKVAETEKEQWIAYPSY
- protein production: not failed

Sequence: MTRTLTTPLPTAPRAKPARRPTTLLFAYGATLNPEHIMVRLCQPKIRAIARLPDYRLGFHGHSEVWDSGLETLVDEPGAEAWGVLYELSATELDRFDAWQGVKLDGGGSYFHYPVEVIDENGQLLDALFHRKTEMGPQQPASRDYLDFILAGARARGLPARAIAVLEACTAVQARYPVPKMNTDIKALASKLSCAC
- protein production: failed

Sequence: MTTENTTALLLIDFQNDYFSTYNGAKNPLVGTEAAAEQGAKLLAKFRQQGLPVVHVRHEFPTDEAPFFLPGSDGAKIHPSVAAQEGEAVVLKHQINSFRDTDLKKVLDDAGIKKLVIVGAMTHMCIDAVTRAAEDLGYECAVAHDACATLDLEFNGITVPAAQVHAAFMSALSFAYANVASADELIAGL
- protein production: not failed

Sequence: MCIAIPGKMTAIVDENTATIDMGGICRDVNMALMGGAEESMIGKHFLVHVGYAISEISEEESEETMRLLKIMAGLEEIDSFENESQ
- protein production: failed

Sequence: PSHSLQAPEVRFSKEMECLQAMGFVNYNANLQALIATDGDTNAAIYKLKSSQGF
- protein production: not failed

Sequence: MGRLHCTEDPVPEAVGGDMQQLNQLGAQQFSALTEVLFHFLTEQKEVERFLAQLSEFATTNQISLGSLRSIVKSLLLVPNGALKKSLTAKQVQADFITLGLSEEKATYFSEKWKQNTPTLARWAIGQTLMINQLIDMEWKFGVTSGSSELEKVGSIFLQLKLVVKKGNQTKNVYIELTLPQFYSFLHEMERVRTSMECFC
- protein production: failed
